Results: patent publication US20060067951A1 (GOVERNING COUNCIL OF THE UNIVERSITY OF TORONTO, published 2006)

Target: T1, S. mutans ComD histidine kinase receptor (Streptococcus mutans)
T1 chain: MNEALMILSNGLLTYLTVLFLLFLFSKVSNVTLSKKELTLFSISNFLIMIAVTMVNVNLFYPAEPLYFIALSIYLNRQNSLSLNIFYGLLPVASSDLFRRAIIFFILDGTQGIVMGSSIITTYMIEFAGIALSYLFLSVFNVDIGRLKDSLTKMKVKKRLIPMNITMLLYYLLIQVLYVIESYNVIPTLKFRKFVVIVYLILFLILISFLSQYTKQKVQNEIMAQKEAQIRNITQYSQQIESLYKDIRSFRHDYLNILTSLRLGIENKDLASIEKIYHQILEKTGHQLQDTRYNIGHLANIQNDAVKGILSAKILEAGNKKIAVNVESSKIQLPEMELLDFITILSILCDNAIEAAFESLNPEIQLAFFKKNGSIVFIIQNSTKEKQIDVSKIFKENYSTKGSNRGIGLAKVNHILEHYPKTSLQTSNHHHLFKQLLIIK
Experiment: cell-based or functional assay

B1: CSP peptide analog G1 (peptide)
peptide: SGSLSTFFRLFNRSFTQAGK
- Transformation efficiency (vs 5 µg CSP), 5 µg/ml peptide, S. mutans wild-type UA159: 2 fold decrease
- Transformation efficiency (vs no CSP), 5 µg/ml peptide, S. mutans wild-type UA159: 848 fold increase

B2: CSP peptide analog F1 (peptide)
peptide: SGSLSTFFRLFNRSFTQALK
- Transformation efficiency (vs 5 µg CSP), 5 µg/ml peptide, S. mutans wild-type UA159: 3 fold decrease
- Transformation efficiency (vs no CSP), 5 µg/ml peptide, S. mutans wild-type UA159: 541 fold increase

B3: CSP peptide analog E2 (peptide)
peptide: SGSLSTFFRLFNASFTQALGK
- Transformation efficiency (vs 5 µg CSP), 5 µg/ml peptide, S. mutans wild-type UA159: 6 fold decrease
- Transformation efficiency (vs no CSP), 5 µg/ml peptide, S. mutans wild-type UA159: 252 fold increase

B4: CSP peptide analog B3 (peptide)
peptide: SGTLSTFFRLFNRSFTQA
- Transformation efficiency (vs 5 µg CSP), 5 µg/ml peptide, S. mutans wild-type UA159: 8 fold decrease
- Transformation efficiency (vs no CSP), 5 µg/ml peptide, S. mutans wild-type UA159: 195 fold increase

B5: CSP peptide analog C2 (peptide)
peptide: SGSLSTFFALFNRSFTQALGK
- Transformation efficiency (vs 5 µg CSP), 5 µg/ml peptide, S. mutans wild-type UA159: 48 fold decrease
- Transformation efficiency (vs no CSP), 5 µg/ml peptide, S. mutans wild-type UA159: 32 fold increase

B6: CSP peptide analog H1 (peptide)
peptide: SGSLSTFFRLFNRSFTQLGK
- Transformation efficiency (vs 5 µg CSP), 5 µg/ml peptide, S. mutans wild-type UA159: 28000 fold decrease
- Transformation efficiency (vs no CSP), 5 µg/ml peptide, S. mutans wild-type UA159: 18 fold decrease

B7: CSP peptide analog D1 (peptide)
peptide: SGSSTFFRLFNRSFTQALGK
- Transformation efficiency (vs 5 µg CSP), 5 µg/ml peptide, S. mutans wild-type UA159: 6 fold decrease
- Transformation efficiency (vs no CSP), 5 µg/ml peptide, S. mutans wild-type UA159: 275 fold increase

B8: mature wild-type S. mutans competence stimulating peptide (CSP) (peptide)
peptide: SGSLSTFFRLFNRSFTQALGK
- Transformation efficiency (vs no CSP), 5 µg/ml peptide, S. mutans wild-type UA159: 1550 fold increase

B9: CSP peptide analog A2 (peptide)
peptide: SGSLSTFFRLFNRSFTALGK
- Transformation efficiency (vs 5 µg CSP), 5 µg/ml peptide, S. mutans wild-type UA159: 7 fold decrease
- Transformation efficiency (vs no CSP), 5 µg/ml peptide, S. mutans wild-type UA159: 125 fold increase

B10: CSP peptide analog B2 (peptide)
peptide: SGSLSTFFVLFNRSFTQALGK
- Transformation efficiency (vs 5 µg CSP), 5 µg/ml peptide, S. mutans wild-type UA159: 414 fold decrease
- Transformation efficiency (vs no CSP), 5 µg/ml peptide, S. mutans wild-type UA159: 4 fold increase

B11: CSP peptide analog D2 (peptide)
peptide: SGSLSTFFRLFNVSFTQALGK
- Transformation efficiency (vs 5 µg CSP), 5 µg/ml peptide, S. mutans wild-type UA159: 16 fold decrease
- Transformation efficiency (vs no CSP), 5 µg/ml peptide, S. mutans wild-type UA159: 99 fold increase

B12: CSP peptide analog F2 (peptide)
peptide: SGSLSTFFRLFNRSFTQALGV
- Transformation efficiency (vs 5 µg CSP), 5 µg/ml peptide, S. mutans wild-type UA159: 3 fold decrease
- Transformation efficiency (vs no CSP), 5 µg/ml peptide, S. mutans wild-type UA159: 543 fold increase

B13: CSP peptide analog E1 (peptide)
peptide: SGSLTFFRLFNRSFTQALGK
- Transformation efficiency (vs 5 µg CSP), 5 µg/ml peptide, S. mutans wild-type UA159: 2 fold decrease
- Transformation efficiency (vs no CSP), 5 µg/ml peptide, S. mutans wild-type UA159: 791 fold increase

B14: CSP peptide analog G2 (peptide)
peptide: SGSLSTFFRLFNRSFTQALGA
- Transformation efficiency (vs 5 µg CSP), 5 µg/ml peptide, S. mutans wild-type UA159: 28 fold decrease
- Transformation efficiency (vs no CSP), 5 µg/ml peptide, S. mutans wild-type UA159: 56 fold increase
